According to patent US20180251503A1 (Memorial Sloan Kettering, published 2018):

B1: GD2xCD3 bispecific fusion protein (scFv5F11-(G4S)3-scFvhOKT3, Y-BT, without dimerization component) (bispecific antibody)
scFv: QVQLQQSGPELVKPGASVKISCKTSGYKFTEYTMHWVKQSHGKCLEWIGGINPNNGGTNYNQKFKGKATLTVDKSSSTAYMELRSLTSEDSAVYYCARDTTVPYAYWGQGTTVTVSSGGGGSGGGGSGGGGSDIELTQSPAIMSASPGEKVTMTCSASSSISYMHWYQQKPGTSPKRWIYDTSKLASGVPARFSGSGSGTSYSLTISSMEAEDAATYYCHQRSSYPLTFGCGTKLEIKRASTKGPGGGGSGGGGSGGGGSQVQLVQSGGGVVQPGRSLRLSCKASGYTFTRYTMHWVRQAPGKGLEWIGYINPSRGYTNYNQKFKDRFTISRDNSKNTAFLQMDSLRPEDTGVYFCARYYDDHYCLDYWGQGTPVTVSSGGGGSGGGGSGGGGSDIQMTQSPSSLSASVGDRVTITCSASSSVSYMNWYQQTPGKAPKRWIYDTSKLASGVPSRFSGSGSGTDYTFTISSLQPEDIATYYCQQWSSNPFTFGQGTKLQITRHHHHHH
B2: GD2xCD3-HDD bispecific fusion protein (scFv5F11-scFvhOKT3 with HNF-1alpha dimerization component, Y-BT-HDD) (bispecific antibody)
scFv: QVQLQQSGPELVKPGASVKISCKTSGYKFTEYTMHWVKQSHGKCLEWIGGINPNNGGTNYNQKFKGKATLTVDKSSSTAYMELRSLTSEDSAVYYCARDTTVPYAYWGQGTTVTVSSGGGGSGGGGSGGGGSDIELTQSPAIMSASPGEKVTMTCSASSSISYMHWYQQKPGTSPKRWIYDTSKLASGVPARFSGSGSGTSYSLTISSMEAEDAATYYCHQRSSYPLTFGCGTKLEIKRASTKGPGGGGSGGGGSGGGGSQVQLVQSGGGVVQPGRSLRLSCKASGYTFTRYTMHWVRQAPGKGLEWIGYINPSRGYTNYNQKFKDRFTISRDNSKNTAFLQMDSLRPEDTGVYFCARYYDDHYCLDYWGQGTPVTVSSGGGGSGGGGSGGGGSDIQMTQSPSSLSASVGDRVTITCSASSSVSYMNWYQQTPGKAPKRWIYDTSKLASGVPSRFSGSGSGTDYTFTISSLQPEDIATYYCQQWSSNPFTFGQGTKLQITRTPLGDTTHTSGMVSKLSQLQTELLAALLESGLSKEALIQALGEGSGGAPHHHHHH
B3: Humanized OKT3 IgG (parental humanized OKT3 antibody) (antibody, V domains shown)
VH: QVQLVQSGGGVVQPGRSLRLSCKASGYTFTRYTMHWVRQAPGKGLEWIGYINPSRGYTNYNQKFKDRFTISRDNSKNTAFLQMDSLRPEDTGVYFCARYYDDHYCLDYWGQGTPVTVSS
VL: DIQMTQSPSSLSASVGDRVTITCSASSSVSYMNWYQQTPGKAPKRWIYDTSKLASGVPSRFSGSGSGTDYTFTISSLQPEDIATYYCQQWSSNPFTFGQGTKLQITR

These binders were tested against CD3 on T cells (Jurkat cells; purified human T cells) (human, UniProt P07766 23-207; P09693 23-182; P04234 22-171) (assay: cell-based or functional assay).

| Binder | IFN-γ release from human T cells (no tumor cells), ELISA | IL-2 release from human T cells (no tumor cells), ELISA | IL-10 release from human T cells (no tumor cells), ELISA | TNF-α release from human T cells (no tumor cells), ELISA |
| --- | --- | --- | --- | --- |
| B1 | 1.7 pg/mL | 2 pg/mL | 3.6 pg/mL | 7.9 pg/mL |
| B2 | 2.1 pg/mL | 2.2 pg/mL | 2.1 pg/mL | 7.6 pg/mL |
| B3 | 228 pg/mL | 36.5 pg/mL | 29.8 pg/mL | 86.7 pg/mL |
